# Measurements taken from publication PMC9976877, “The Ku complex promotes DNA end-bridging and this function is antagonized by Tel1/ATM kinase”.
# Where a chain is given by its changes, count along the chain named.
# T1: Ku70 C85Y-Strep;Ku80-6xHis (Saccharomyces cerevisiae;Saccharomyces …, UniProt P32807;Q04437 1-602;1-629, C85Y|)
# T1 sequence 1: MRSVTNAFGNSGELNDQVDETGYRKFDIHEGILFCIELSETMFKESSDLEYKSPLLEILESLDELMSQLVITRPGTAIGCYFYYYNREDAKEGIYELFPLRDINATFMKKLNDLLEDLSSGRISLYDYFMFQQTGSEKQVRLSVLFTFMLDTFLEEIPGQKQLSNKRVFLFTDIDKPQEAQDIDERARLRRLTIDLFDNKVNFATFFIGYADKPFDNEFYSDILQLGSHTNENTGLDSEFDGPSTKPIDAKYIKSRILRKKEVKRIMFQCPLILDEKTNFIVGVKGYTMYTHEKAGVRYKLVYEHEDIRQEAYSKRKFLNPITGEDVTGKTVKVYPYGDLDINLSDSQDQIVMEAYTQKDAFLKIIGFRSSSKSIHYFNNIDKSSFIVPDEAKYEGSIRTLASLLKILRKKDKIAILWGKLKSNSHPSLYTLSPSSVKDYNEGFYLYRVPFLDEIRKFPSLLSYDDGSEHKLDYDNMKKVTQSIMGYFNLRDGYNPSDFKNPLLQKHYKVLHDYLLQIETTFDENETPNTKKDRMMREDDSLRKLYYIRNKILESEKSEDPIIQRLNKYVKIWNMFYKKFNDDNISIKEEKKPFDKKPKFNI
# T1 sequence 2: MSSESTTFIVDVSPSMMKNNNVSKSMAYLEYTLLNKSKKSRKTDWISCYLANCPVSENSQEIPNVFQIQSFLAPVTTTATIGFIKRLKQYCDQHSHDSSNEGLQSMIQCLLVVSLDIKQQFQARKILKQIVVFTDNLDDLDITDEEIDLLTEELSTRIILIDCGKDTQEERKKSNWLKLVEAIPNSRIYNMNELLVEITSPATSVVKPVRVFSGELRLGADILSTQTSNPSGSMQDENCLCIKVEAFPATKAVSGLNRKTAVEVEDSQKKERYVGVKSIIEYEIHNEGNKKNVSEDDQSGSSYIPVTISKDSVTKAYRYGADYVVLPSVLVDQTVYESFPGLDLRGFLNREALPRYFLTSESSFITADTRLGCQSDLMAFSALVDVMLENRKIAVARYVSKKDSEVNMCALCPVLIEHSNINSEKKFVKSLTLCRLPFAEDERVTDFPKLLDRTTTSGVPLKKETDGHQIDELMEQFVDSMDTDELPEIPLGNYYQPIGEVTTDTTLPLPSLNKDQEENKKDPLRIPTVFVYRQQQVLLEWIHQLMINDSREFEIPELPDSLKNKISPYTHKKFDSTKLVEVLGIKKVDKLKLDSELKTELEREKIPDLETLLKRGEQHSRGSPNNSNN
# T2: Ku70-Strep (wild type);Ku80-6xHis (Saccharomyces cerevisiae;Saccharomyces …, UniProt P32807;Q04437 1-602;1-629, |)
# T2 sequence 1: T1 sequence 1 with Y85C
# T2 sequence 2: T1 sequence 2
# B1: 21 bp blunt-ended dsDNA (dsDNA)
# DNA 1: CCGCACACCCACACACCAGTG
# DNA 2: CACTGGTGTGTGGGTGTGCGG
# Legend:
# [1] = target: T1, Ku70 C85Y-Strep;Ku80-6xHis; assay: EMSA; 13 nM DNA; 0-104 nM Ku; shift detectable at 2-fold ratio of Ku to DNA (stronger than wild type); 2 mM MgCl2; EMSA: 25 mM Tris/HCl pH 7.5, 100 mM NaCl, 2 mM MgCl2, 7% glycerol, 1 mM DTT, 30 min on ice; 6% native gel at 4 °C; conditions: protein: recombinant;recombinant; tags: Strep;6xHis; copies: 1;1; label: 32P; blunt
# [2] = target: T2, Ku70-Strep (wild type);Ku80-6xHis; assay: EMSA; 13 nM DNA; 0-104 nM Ku; shift detectable at 4-fold ratio of Ku to DNA; 2 mM MgCl2; EMSA: 25 mM Tris/HCl pH 7.5, 100 mM NaCl, 2 mM MgCl2, 7% glycerol, 1 mM DTT, 30 min on ice; 6% native gel at 4 °C; conditions: protein: recombinant;recombinant; tags: Strep;6xHis; copies: 1;1; label: 32P; blunt
binder,measurement,setting,value
B1,binding result,[1],binds
same,binding result,[2],binds
